The values below come from PMC3378860.

Holding throughout (assay): EMSA
On the technique in general: In EMSA bound probe runs differently from free probe, usually more slowly.

Series [1] relates to ISW2 complex ((yeast)).
The subject of series [2] is SWI/SNF complex ((yeast)).
For series [3], the system named is I-S-I complex (ISW2 with Snf2 ATPase domain) ((yeast)).

Consider 217 bp DNA, for which the Kd in series [1] amounted to 25 nM; in series [2], 20 nM; in series [3] it was 31 nM.

As usually defined, the Kd is the equilibrium constant for the complex coming apart. Read a low Kd as tighter binding.
